From paper PMC9410543, “Nonlytic cellular release of hepatitis A virus requires dual capsid recruitment of the ESCRT-associated Bro1 domain proteins HD-PTP and ALIX” (PLoS Pathogens, 2022) come the findings set out here.

This experiment concerns the target T1, 6XHis-tagged ALIX Bro1 protein (residues 1–392) (UniProt Q8WUM4 1-392).
T1 construct: Bro1 domain of ALIX, residues 1-392; also called recombinant ALIX Bro1; recombinant Bro1; source: E. coli, recombinant
T1 sequence (looked up): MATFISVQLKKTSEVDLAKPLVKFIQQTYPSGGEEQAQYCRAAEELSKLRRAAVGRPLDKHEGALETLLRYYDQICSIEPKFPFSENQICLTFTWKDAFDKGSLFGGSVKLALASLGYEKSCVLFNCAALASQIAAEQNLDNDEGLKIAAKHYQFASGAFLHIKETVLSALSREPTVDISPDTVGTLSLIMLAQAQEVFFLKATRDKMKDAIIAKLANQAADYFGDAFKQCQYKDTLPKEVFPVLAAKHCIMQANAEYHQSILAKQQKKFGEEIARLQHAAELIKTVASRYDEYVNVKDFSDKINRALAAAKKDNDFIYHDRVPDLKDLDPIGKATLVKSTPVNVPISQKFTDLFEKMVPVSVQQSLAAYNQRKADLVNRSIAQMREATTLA
Briefly: pull-down. The note with it: both partners purified.

B1: peptide representing the C-terminal 20 residues of CHMP4B (peptide, UniProt Q9H444 205-224, looked up)
peptide: KKKEEEDDDMKELENWAGSM
notes: also called CHMP4 peptide; source: synthetic peptide
Take B1: the binding result was “binds”.
